This passage reports abundance fitness results from the Human Domainome abundance scans (Beltran et al. 2025).

± gives the uncertainty stated by the source.

B1: E3 ubiquitin-protein ligase Midline-1, residues 172 to 214; numbered along this chain, O15344 (parent)
chain: GLMCLEHEDEKVNMYCVTDDQLICALCKLVGRHRDHQVAALSE

In this data set the parent is B1. In words: abundance fitness (aPCA) (normalised: wild type 0, dead -1); higher = more abundant; growth selection in yeast, the domain comes from the species named. Particulars: Homo sapiens.
GLYCLEHEDEKVNMYCVTDDQLICALCKLVGRHRDHQVAALSE [M3Y]: the abundance fitness is -0.229 ± 0.26. The result for GLHCLEHEDEKVNMYCVTDDQLICALCKLVGRHRDHQVAALSE [M3H] reads 0.14 ± 0.1; that for GLKCLEHEDEKVNMYCVTDDQLICALCKLVGRHRDHQVAALSE [M3K], -0.006 ± 0.083. The value for GLWCLEHEDEKVNMYCVTDDQLICALCKLVGRHRDHQVAALSE [M3W] was -0.333 ± 0.086; that for GLPCLEHEDEKVNMYCVTDDQLICALCKLVGRHRDHQVAALSE [M3P] was -0.309 ± 0.093. The result for GLTCLEHEDEKVNMYCVTDDQLICALCKLVGRHRDHQVAALSE [M3T] reads -0.166 ± 0.093; that for GLLCLEHEDEKVNMYCVTDDQLICALCKLVGRHRDHQVAALSE [M3L], -0.05 ± 0.072. Take GLICLEHEDEKVNMYCVTDDQLICALCKLVGRHRDHQVAALSE [M3I]: the abundance fitness came to 0.089 ± 0.11. The result for GLSCLEHEDEKVNMYCVTDDQLICALCKLVGRHRDHQVAALSE [M3S] reads 0.006 ± 0.06; that for GLCCLEHEDEKVNMYCVTDDQLICALCKLVGRHRDHQVAALSE [M3C], -0.21 ± 0.21.

Consider GLDCLEHEDEKVNMYCVTDDQLICALCKLVGRHRDHQVAALSE [M3D], for which the abundance fitness worked out at 0.018 ± 0.21. The result for GLRCLEHEDEKVNMYCVTDDQLICALCKLVGRHRDHQVAALSE [M3R] reads -0.101 ± 0.057; that for GLNCLEHEDEKVNMYCVTDDQLICALCKLVGRHRDHQVAALSE [M3N], 0.019 ± 0.16. In the case of GLECLEHEDEKVNMYCVTDDQLICALCKLVGRHRDHQVAALSE [M3E], the abundance fitness was -0.332 ± 0.1. The value for GLVCLEHEDEKVNMYCVTDDQLICALCKLVGRHRDHQVAALSE [M3V] was -0.144 ± 0.075; that for GLMCSEHEDEKVNMYCVTDDQLICALCKLVGRHRDHQVAALSE [L5S] was -0.012 ± 0.073.

As to GLMCWEHEDEKVNMYCVTDDQLICALCKLVGRHRDHQVAALSE [L5W], the abundance fitness was -0.482 ± 0.1. The value for GLMCDEHEDEKVNMYCVTDDQLICALCKLVGRHRDHQVAALSE [L5D] was 0.039 ± 0.12; that for GLMCPEHEDEKVNMYCVTDDQLICALCKLVGRHRDHQVAALSE [L5P] was 0.058 ± 0.069.

Consider GLMCFEHEDEKVNMYCVTDDQLICALCKLVGRHRDHQVAALSE [L5F], for which the abundance fitness is -0.13 ± 0.3. The result for GLMCYEHEDEKVNMYCVTDDQLICALCKLVGRHRDHQVAALSE [L5Y] reads -0.021 ± 0.16; that for GLMCAEHEDEKVNMYCVTDDQLICALCKLVGRHRDHQVAALSE [L5A], 0.023 ± 0.051. Regarding GLMCHEHEDEKVNMYCVTDDQLICALCKLVGRHRDHQVAALSE [L5H], the abundance fitness was -0.037 ± 0.11. The result for GLMCQEHEDEKVNMYCVTDDQLICALCKLVGRHRDHQVAALSE [L5Q] reads -0.155 ± 0.11; that for GLMCEEHEDEKVNMYCVTDDQLICALCKLVGRHRDHQVAALSE [L5E], 0.074 ± 0.066; that for GLMCCEHEDEKVNMYCVTDDQLICALCKLVGRHRDHQVAALSE [L5C], 0.055 ± 0.11.

GLMCNEHEDEKVNMYCVTDDQLICALCKLVGRHRDHQVAALSE [L5N]: the abundance fitness is -0.124 ± 0.19. The result for GLMCREHEDEKVNMYCVTDDQLICALCKLVGRHRDHQVAALSE [L5R] reads -0.062 ± 0.054. The result for GLMCTEHEDEKVNMYCVTDDQLICALCKLVGRHRDHQVAALSE [L5T] reads -0.039 ± 0.12; that for GLMCKEHEDEKVNMYCVTDDQLICALCKLVGRHRDHQVAALSE [L5K], 0.142 ± 0.085.

Consider GLMCIEHEDEKVNMYCVTDDQLICALCKLVGRHRDHQVAALSE [L5I], for which the abundance fitness is -0.435 ± 0.41.

GLMCVEHEDEKVNMYCVTDDQLICALCKLVGRHRDHQVAALSE [L5V]: the abundance fitness was -0.165 ± 0.064.

Regarding GLMCGEHEDEKVNMYCVTDDQLICALCKLVGRHRDHQVAALSE [L5G], the abundance fitness is -0.092 ± 0.062. The result for GLMCLEHLDEKVNMYCVTDDQLICALCKLVGRHRDHQVAALSE [E8L] reads 0.108 ± 0.069; that for GLMCLEHCDEKVNMYCVTDDQLICALCKLVGRHRDHQVAALSE [E8C], 0.16 ± 0.066. The result for GLMCLEHADEKVNMYCVTDDQLICALCKLVGRHRDHQVAALSE [E8A] reads 0.179 ± 0.054; that for GLMCLEHFDEKVNMYCVTDDQLICALCKLVGRHRDHQVAALSE [E8F], -0.144 ± 0.17; that for GLMCLEHIDEKVNMYCVTDDQLICALCKLVGRHRDHQVAALSE [E8I], -0.139 ± 0.16. For GLMCLEHDDEKVNMYCVTDDQLICALCKLVGRHRDHQVAALSE [E8D], the abundance fitness was -0.165 ± 0.09. On to GLMCLEHQDEKVNMYCVTDDQLICALCKLVGRHRDHQVAALSE [E8Q], for which the abundance fitness turned out to be 0.051 ± 0.074. Regarding GLMCLEHNDEKVNMYCVTDDQLICALCKLVGRHRDHQVAALSE [E8N], the abundance fitness is -0.137 ± 0.11. In the case of GLMCLEHRDEKVNMYCVTDDQLICALCKLVGRHRDHQVAALSE [E8R], the abundance fitness was determined as 0.116 ± 0.045. The value for GLMCLEHPDEKVNMYCVTDDQLICALCKLVGRHRDHQVAALSE [E8P] was 0.186 ± 0.081. The result for GLMCLEHHDEKVNMYCVTDDQLICALCKLVGRHRDHQVAALSE [E8H] reads 0.056 ± 0.13. The result for GLMCLEHKDEKVNMYCVTDDQLICALCKLVGRHRDHQVAALSE [E8K] reads 0.221 ± 0.074; that for GLMCLECEDEKVNMYCVTDDQLICALCKLVGRHRDHQVAALSE [H7C], -0.466 ± 0.14.

Turning to GLMCLEREDEKVNMYCVTDDQLICALCKLVGRHRDHQVAALSE [H7R], the abundance fitness was -0.646 ± 0.07. The result for GLMCLEKEDEKVNMYCVTDDQLICALCKLVGRHRDHQVAALSE [H7K] reads -0.604 ± 0.12; that for GLMCLEWEDEKVNMYCVTDDQLICALCKLVGRHRDHQVAALSE [H7W], -0.89 ± 0.13. As for GLMCLEMEDEKVNMYCVTDDQLICALCKLVGRHRDHQVAALSE [H7M], the abundance fitness was -0.66 ± 0.12. The value for GLMCLEYEDEKVNMYCVTDDQLICALCKLVGRHRDHQVAALSE [H7Y] was -0.637 ± 0.13; that for GLMCLEAEDEKVNMYCVTDDQLICALCKLVGRHRDHQVAALSE [H7A] was -0.703 ± 0.083. The result for GLMCLEGEDEKVNMYCVTDDQLICALCKLVGRHRDHQVAALSE [H7G] reads -0.5 ± 0.057.

Turning to GLMCLESEDEKVNMYCVTDDQLICALCKLVGRHRDHQVAALSE [H7S], the abundance fitness is -0.765 ± 0.11.

As to GLMCLEQEDEKVNMYCVTDDQLICALCKLVGRHRDHQVAALSE [H7Q], the abundance fitness is -0.551 ± 0.12. The value for GLMCLEEEDEKVNMYCVTDDQLICALCKLVGRHRDHQVAALSE [H7E] was -0.433 ± 0.081; that for GLMCLEVEDEKVNMYCVTDDQLICALCKLVGRHRDHQVAALSE [H7V] was -1.34 ± 0.18. The result for GLMCLELEDEKVNMYCVTDDQLICALCKLVGRHRDHQVAALSE [H7L] reads -1.03 ± 0.14.

On to GLMCLETEDEKVNMYCVTDDQLICALCKLVGRHRDHQVAALSE [H7T], for which the abundance fitness is -0.492 ± 0.15.
